Blank lines part the entries; values can stand above or below the molecule they belong to.
B2: ethylene receptor ethylene response 1 (ETR1), wild type (receptor, Arabidopsis, UniProt P49333 1-738, looked up)
chain: MEVCNCIEPQWPADELLMKYQYISDFFIAIAYFSIPLELIYFVKKSAVFPYRWVLVQFGAFIVLCGATHLINLWTFTTHSRTVALVMTTAKVLTAVVSCATALMLVHIIPDLLSVKTRELFLKNKAAELDREMGLIRTQEETGRHVRMLTHEIRSTLDRHTILKTTLVELGRTLALEECALWMPTRTGLELQLSYTLRHQHPVEYTVPIQLPVINQVFGTSRAVKISPNSPVARLRPVSGKYMLGEVVAVRVPLLHLSNFQINDWPELSTKRYALMVLMLPSDSARQWHVHELELVEVVADQVAVALSHAAILEESMRARDLLMEQNVALDLARREAETAIRARNDFLAVMNHEMRTPMHAIIALSSLLQETELTPEQRLMVETILKSSNLLATLMNDVLDLSRLEDGSLQLELGTFNLHTLFREVLNLIKPIAVVKKLPITLNLAPDLPEFVVGDEKRLMQIILNIVGNAVKFSKQGSISVTALVTKSDTRAADFFVVPTGSHFYLRVKVKDSGAGINPQDIPKIFTKFAQTQSLATRSSGGSGLGLAISKRFVNLMEGNIWIESDGLGKGCTAIFDVKLGISERSNESKQSGIPKVPAIPRHSNFTGLKVLVMDENGVSRMVTKGLLVHLGCEVTTVSSNEECLRVVSHEHKVVFMDVCMPGVENYQIALRIHEKFTKQRHQRPLLVALSGNTDKSTKEKCMSFGLDGVLLKPVSLDNIRDVLSDLLEPRVLYEGM
notes: Solubilised in beta-D-dodecylmaltoside; also called sensor kinase ETR1; AtETR1

Tests used:
CheW = CheW (UniProt P0A964); conditions: cited from earlier work
[1] = target: the molecule itself; experiment: fluorescence polarisation; Perrin plot of a single dansylated protein at 0.2 uM; 0.2 M potassium phosphate pH 8.0, 0.05% beta-D-dodecylmaltoside, 10 mM beta-cyclodextrin; 5-25 C; apparent molecular weight
[2] = target: the molecule itself; experiment: fluorescence polarisation; Perrin plot of 2 uM ETR1 together with 0.2 uM dansylated AHP1; 0.2 M potassium phosphate pH 8.0, 0.05% beta-D-dodecylmaltoside, 10 mM beta-cyclodextrin; 5-25 C; apparent molecular weight
[3] = target: T1, dansylated AHP1 (Arabidopsis), Q9ZNV9; experiment: fluorescence polarisation; Perrin plot of a single dansylated protein at 0.2 uM; 0.2 M potassium phosphate pH 8.0, 0.05% beta-D-dodecylmaltoside, 10 mM beta-cyclodextrin; 5-25 C; apparent molecular weight; conditions: remark: other sources report otherwise
T1 chain: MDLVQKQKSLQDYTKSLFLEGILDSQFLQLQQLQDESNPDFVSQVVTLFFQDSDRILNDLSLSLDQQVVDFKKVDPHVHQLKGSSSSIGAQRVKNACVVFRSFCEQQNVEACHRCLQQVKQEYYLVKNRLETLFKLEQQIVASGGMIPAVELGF

[4] = target: T1, dansylated AHP1 (Arabidopsis), Q9ZNV9; experiment: fluorescence polarisation; Perrin plot of 2 uM ETR1 together with 0.2 uM dansylated AHP1; 0.2 M potassium phosphate pH 8.0, 0.05% beta-D-dodecylmaltoside, 10 mM beta-cyclodextrin; 5-25 C; apparent molecular weight; conditions: remark: other sources report otherwise
[5] = target: T2, AHP1-GFP(S65T), wild type Arabidopsis histidine-containing phosphotransfer protein 1 fused to green fluorescent protein (Arabidopsis), Q9ZNV9; experiment: fluorescence polarisation; Perrin plot (anisotropy against temperature/viscosity) of 20 nM AHP1-GFP; 50 mM Tris-HCl pH 7.5, 100 mM KCl, 0.1% beta-D-dodecylmaltoside, 0.002% PMSF; 10-30 C, 0-20% glycerol; apparent molecular weight; conditions: remark: other sources report otherwise
T2 chain: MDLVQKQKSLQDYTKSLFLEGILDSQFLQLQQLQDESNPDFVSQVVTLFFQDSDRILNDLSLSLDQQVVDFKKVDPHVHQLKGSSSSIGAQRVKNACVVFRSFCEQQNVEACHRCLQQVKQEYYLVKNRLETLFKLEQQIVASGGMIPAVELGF

[6] = target: B2; experiment: fluorescence polarisation; Perrin plot of 2 uM ETR1 together with 0.2 uM dansylated AHP1; 0.2 M potassium phosphate pH 8.0, 0.05% beta-D-dodecylmaltoside, 10 mM beta-cyclodextrin; 5-25 C; apparent molecular weight; conditions: both partners purified
ETR1-D659A = target: T3, ETR1-D659A (Arabidopsis, UniProt P49333 1-738, D659A); experiment: fluorescence polarisation; ETR1 mutant (0.04-20 uM) titrated to 8 nM AHP1 mutant-GFP(S65T); 50 mM Tris-HCl pH 7.5, 100 mM KCl, 0.1% beta-D-dodecylmaltoside, 0.002% PMSF; fit to a single binding site; conditions: both partners purified
T3 construct: Represents the non-phosphorylated state of the receiver domain
T3 sequence (looked up): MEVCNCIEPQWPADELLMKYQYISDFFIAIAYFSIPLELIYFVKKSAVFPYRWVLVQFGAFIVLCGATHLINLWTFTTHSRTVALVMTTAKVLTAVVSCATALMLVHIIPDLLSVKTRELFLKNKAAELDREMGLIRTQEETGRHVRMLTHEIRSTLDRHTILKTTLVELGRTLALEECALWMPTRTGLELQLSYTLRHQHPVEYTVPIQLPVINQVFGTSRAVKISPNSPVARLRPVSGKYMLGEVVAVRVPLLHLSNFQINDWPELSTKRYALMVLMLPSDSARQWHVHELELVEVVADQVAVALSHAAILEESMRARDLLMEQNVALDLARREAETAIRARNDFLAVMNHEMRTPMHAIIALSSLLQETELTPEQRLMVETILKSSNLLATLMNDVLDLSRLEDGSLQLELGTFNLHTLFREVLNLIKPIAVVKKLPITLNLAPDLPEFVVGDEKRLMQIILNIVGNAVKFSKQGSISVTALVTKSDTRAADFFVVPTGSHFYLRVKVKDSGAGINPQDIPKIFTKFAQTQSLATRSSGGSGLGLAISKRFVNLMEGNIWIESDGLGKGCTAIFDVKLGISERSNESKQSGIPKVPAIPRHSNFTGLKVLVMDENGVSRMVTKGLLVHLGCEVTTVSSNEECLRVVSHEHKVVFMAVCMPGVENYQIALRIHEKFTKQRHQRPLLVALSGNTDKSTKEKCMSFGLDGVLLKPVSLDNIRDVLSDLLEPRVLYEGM

ETR1-D659E = target: T4, ETR1-D659E (Arabidopsis, UniProt P49333 1-738, D659E); experiment: as above; conditions: both partners purified
T4 construct: Phosphomimetic of the receiver domain aspartate; also called ETR1 mutant mimicking permanent phosphorylation
T4 sequence (looked up): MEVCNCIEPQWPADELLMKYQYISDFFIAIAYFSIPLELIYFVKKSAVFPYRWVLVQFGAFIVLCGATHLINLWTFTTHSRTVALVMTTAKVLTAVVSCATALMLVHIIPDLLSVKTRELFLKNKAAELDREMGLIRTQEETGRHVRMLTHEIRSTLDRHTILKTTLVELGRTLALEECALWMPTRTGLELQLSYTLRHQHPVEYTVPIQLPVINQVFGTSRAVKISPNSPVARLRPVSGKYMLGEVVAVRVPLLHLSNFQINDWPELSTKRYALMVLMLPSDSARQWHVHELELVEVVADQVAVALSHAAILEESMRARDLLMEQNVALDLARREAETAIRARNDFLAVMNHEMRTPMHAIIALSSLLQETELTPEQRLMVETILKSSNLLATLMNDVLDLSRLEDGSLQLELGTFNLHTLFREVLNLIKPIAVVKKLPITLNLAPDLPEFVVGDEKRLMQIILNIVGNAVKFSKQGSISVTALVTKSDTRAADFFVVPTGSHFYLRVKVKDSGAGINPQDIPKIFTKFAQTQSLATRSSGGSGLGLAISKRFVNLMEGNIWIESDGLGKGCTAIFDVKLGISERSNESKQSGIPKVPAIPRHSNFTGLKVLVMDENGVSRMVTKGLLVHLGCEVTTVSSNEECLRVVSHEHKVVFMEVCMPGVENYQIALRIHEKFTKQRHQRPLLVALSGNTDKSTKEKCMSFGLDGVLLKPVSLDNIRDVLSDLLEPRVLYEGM

Chain of CheW (P0A964 whole entry): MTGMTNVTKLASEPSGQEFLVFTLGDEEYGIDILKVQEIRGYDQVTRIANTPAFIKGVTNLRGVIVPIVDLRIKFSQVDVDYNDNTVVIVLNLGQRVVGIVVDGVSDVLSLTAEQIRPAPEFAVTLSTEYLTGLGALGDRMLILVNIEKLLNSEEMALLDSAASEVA

Molecule: CheA (from UniProt P07363)
Kd (CheW): 17 µM

B1: dansylated ETR1 (receptor, Arabidopsis, UniProt P49333 1-738, looked up)
chain: MEVCNCIEPQWPADELLMKYQYISDFFIAIAYFSIPLELIYFVKKSAVFPYRWVLVQFGAFIVLCGATHLINLWTFTTHSRTVALVMTTAKVLTAVVSCATALMLVHIIPDLLSVKTRELFLKNKAAELDREMGLIRTQEETGRHVRMLTHEIRSTLDRHTILKTTLVELGRTLALEECALWMPTRTGLELQLSYTLRHQHPVEYTVPIQLPVINQVFGTSRAVKISPNSPVARLRPVSGKYMLGEVVAVRVPLLHLSNFQINDWPELSTKRYALMVLMLPSDSARQWHVHELELVEVVADQVAVALSHAAILEESMRARDLLMEQNVALDLARREAETAIRARNDFLAVMNHEMRTPMHAIIALSSLLQETELTPEQRLMVETILKSSNLLATLMNDVLDLSRLEDGSLQLELGTFNLHTLFREVLNLIKPIAVVKKLPITLNLAPDLPEFVVGDEKRLMQIILNIVGNAVKFSKQGSISVTALVTKSDTRAADFFVVPTGSHFYLRVKVKDSGAGINPQDIPKIFTKFAQTQSLATRSSGGSGLGLAISKRFVNLMEGNIWIESDGLGKGCTAIFDVKLGISERSNESKQSGIPKVPAIPRHSNFTGLKVLVMDENGVSRMVTKGLLVHLGCEVTTVSSNEECLRVVSHEHKVVFMDVCMPGVENYQIALRIHEKFTKQRHQRPLLVALSGNTDKSTKEKCMSFGLDGVLLKPVSLDNIRDVLSDLLEPRVLYEGM
modifications: dansyl label (dansyl chloride; typical ratio of protein-dansyl labeling 1:4), positions not given
notes: In a dodecylmaltoside micelle; theoretical molecular weight printed as 84.9 kDa; also called ETR1 (dansylated); source: recombinant, purified from the bacterial host, then dansylated
stoichiometry N [1]: 2

Molecule: B2
stoichiometry N [2]: 2

B5: dansylated AHP1 (natural protein, Arabidopsis, UniProt Q9ZNV9 1-154, looked up)
chain: MDLVQKQKSLQDYTKSLFLEGILDSQFLQLQQLQDESNPDFVSQVVTLFFQDSDRILNDLSLSLDQQVVDFKKVDPHVHQLKGSSSSIGAQRVKNACVVFRSFCEQQNVEACHRCLQQVKQEYYLVKNRLETLFKLEQQIVASGGMIPAVELGF
modifications: dansyl label (dansyl chloride; typical ratio of protein-dansyl labeling 1:4), positions not given
notes: Theoretical molecular weight printed as 18.3 kDa; also called AHP1 (dansylated, without GFP); source: recombinant, purified from the bacterial host, then dansylated
binding result [6]: binds

B7: AHP1(H79E)-GFP(S65T) (natural protein, Arabidopsis, UniProt Q9ZNV9 1-154, looked up)
chain: MDLVQKQKSLQDYTKSLFLEGILDSQFLQLQQLQDESNPDFVSQVVTLFFQDSDRILNDLSLSLDQQVVDFKKVDPHVEQLKGSSSSIGAQRVKNACVVFRSFCEQQNVEACHRCLQQVKQEYYLVKNRLETLFKLEQQIVASGGMIPAVELGF
notes: AHP1, Arabidopsis histidine-containing phosphotransfer protein 1; also called AHP1 mutant mimicking permanent phosphorylation
Kd (ETR1-D659A): 3.6 µM
Kd (ETR1-D659E): 16.3 µM

More lines, now with the values ahead:

stoichiometry N [3]: 2
stoichiometry N [4]: 2
B3: dansylated AHP1, Q9ZNV9 1-154 (natural protein)
chain: MDLVQKQKSLQDYTKSLFLEGILDSQFLQLQQLQDESNPDFVSQVVTLFFQDSDRILNDLSLSLDQQVVDFKKVDPHVHQLKGSSSSIGAQRVKNACVVFRSFCEQQNVEACHRCLQQVKQEYYLVKNRLETLFKLEQQIVASGGMIPAVELGF
modifications: here or on the partner: dansyl label (dansyl chloride; typical ratio of protein-dansyl labeling 1:4), positions not given; dansyl label (dansyl chloride; typical ratio of protein-dansyl labeling 1:4), positions not given

stoichiometry N [5]: 2
B4: AHP1-GFP(S65T), wild type Arabidopsis histidine-containing phosphotransfer protein 1 fused to green fluorescent protein, Q9ZNV9 1-154 (natural protein)
chain: MDLVQKQKSLQDYTKSLFLEGILDSQFLQLQQLQDESNPDFVSQVVTLFFQDSDRILNDLSLSLDQQVVDFKKVDPHVHQLKGSSSSIGAQRVKNACVVFRSFCEQQNVEACHRCLQQVKQEYYLVKNRLETLFKLEQQIVASGGMIPAVELGF

Kd (ETR1-D659A): 15.4 µM
Kd (ETR1-D659E): 2.6 µM
B6: AHP1(H79A)-GFP(S65T) (natural protein, Arabidopsis, UniProt Q9ZNV9 1-154, looked up)
chain: MDLVQKQKSLQDYTKSLFLEGILDSQFLQLQQLQDESNPDFVSQVVTLFFQDSDRILNDLSLSLDQQVVDFKKVDPHVAQLKGSSSSIGAQRVKNACVVFRSFCEQQNVEACHRCLQQVKQEYYLVKNRLETLFKLEQQIVASGGMIPAVELGF
notes: AHP1, Arabidopsis histidine-containing phosphotransfer protein 1

Reference: paper PMC3166298, “Phosphorylation Alters the Interaction of the Arabidopsis Phosphotransfer Protein AHP1 with Its Sensor Kinase ETR1” (PLoS ONE, 2011)
